The target in one data set is T1, tt_NADS S-subunit (Thermus thermophilus, UniProt Q72HE9).
T1 construct: gene TT_C1538; S-subunit expressed alone in E. coli BL21/DE3, N-terminal His6-tag
T1 sequence (Q72HE9 1-281): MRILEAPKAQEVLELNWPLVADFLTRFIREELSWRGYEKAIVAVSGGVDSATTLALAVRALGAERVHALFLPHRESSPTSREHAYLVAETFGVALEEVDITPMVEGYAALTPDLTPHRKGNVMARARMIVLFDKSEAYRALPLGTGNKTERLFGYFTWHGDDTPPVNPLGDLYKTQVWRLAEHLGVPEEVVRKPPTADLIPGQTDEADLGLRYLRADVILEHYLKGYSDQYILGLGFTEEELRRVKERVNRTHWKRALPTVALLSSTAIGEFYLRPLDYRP
In words: coupled alcohol dehydrogenase assay, NADH at […] nm. In kind it is biochemical. Particulars: ammonia as amide donor, ATP; constants possibly in Figure 3C.

Substrate in data set [1]: Nc1ncnc2c1ncn2[C@@H]1O[C@H](COP(=O)(O)OP(=O)([O-])OC[C@H]2O[C@@H]([n+]3cccc(C(=O)O)c3)[C@H](O)[C@@H]2O)[C@@H](O)[C@H]1O
In words: steady-state kinetics of NAD synthetase activity. It is filed as biochemical, Methanocaldococcus jannaschii. Conditions: ammonia 4 mM, saturating ATP (2 mM), 10 mM MgCl2, pH 7.5.

Consider `Nc1ncnc2c1ncn2[C@@H]1O[C@H](COP(=O)(O)OP(=O)([O-])OC[C@H]2O[C@@H]([n+]3cccc(C(=O)O)c3)[C@H](O)[C@@H]2O)[C@@H](O)[C@H]1O` [NaAD], for which the “coupled alcohol dehydrogenase assay, NADH at 340 nm” value on tt_NADS S-subunit is listed as “the S-subunit alone ... had a comparable NADS activity only with ammonia”.

B1: mj_NADS (Methanocaldococcus jannaschii DSM 2661) (protein)
chain: MLWGESMEEIVNKITKFIREKVEEANANGVVVGLSGGIDSSVTAYLCVKALGKDKVLGLIMPEKNTNPKDVEHAKMVAENLGIKYIISDITDILKAFGAGGYVPTREFDKIADGNLKARIRMCILYYFANKYNLLVAGTSNKSEIYVGYGTKHGDIACDIRPIGNLFKTEVKKLAKYIGVPKEIIEKPPSAGLWEGQTDEEELDIKYETLDTILKLYEKGKTPEEIHKETNIPLETINYVFDLIKKNEHKRTLPPTPEI
notes: full-length single-domain NADS, N-terminal His6-tag, pET-derived vector, E. coli BL21/DE3
B1: in data set [1], the Michaelis constant (Km) is 130 ± 20 µM and the catalytic constant (kcat) turned out to be 0.20 ± 0.01 s⁻¹.

One may read the Km as the substrate concentration at which the rate is half of its maximum. One may read the kcat as the number of substrate molecules converted per active site and unit of time at saturation.

Source of the values: paper PMC3376133, “Glutamine versus Ammonia Utilization in the NAD Synthetase Family” (PLoS ONE, 2012).
